Test results taken from patent US20070071759A1.

Biological target: T1, NKG2D receptor on NK cells freshly isolated from C57BL6 or on KY-2 cells (murine NK cell line) (murine) (UniProt O54709)
T1 sequence (looked up): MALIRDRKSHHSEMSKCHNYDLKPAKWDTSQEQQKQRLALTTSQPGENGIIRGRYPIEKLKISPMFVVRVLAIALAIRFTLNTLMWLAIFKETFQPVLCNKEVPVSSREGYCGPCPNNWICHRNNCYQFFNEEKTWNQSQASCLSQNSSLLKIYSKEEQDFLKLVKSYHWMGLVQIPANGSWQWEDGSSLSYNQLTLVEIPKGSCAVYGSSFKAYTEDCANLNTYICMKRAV
Test: cell-based or functional assay

Substance: anti-HER2 IgG3-CH3-Rae-1β fusion protein (from UniProt P01860 1-377; O08603 29-229)
- NK cell-mediated killing (direct lysis, KY-2 effector cells): 15 to 59%
- redirected lysis of P815 or J774 cells by KY-2 cells: < 22%
